Results taken from publication PMC6750898.

What was measured:
[1] = target: host-recognition protein P5 of bacteriophage PR772 (bacteriophage PR772); experiment: cryo-EM structure; localized asymmetric (C1) reconstruction of the five-fold vertex after capsid signal subtraction (about 10 Å for the class with P2; 4.41 Å for the penton) and focused classification of the penton base (4.25 Å); models fitted as rigid bodies; purified wild-type virions
[2] = target: capsid associated protein P30 of bacteriophage PR772 (bacteriophage PR772); experiment: cryo-EM structure; icosahedrally averaged (I4) single-particle reconstruction of purified wild-type PR772 virions; overall 2.75 Å, capsid 2.3 Å; de-novo model of the asymmetric unit; difference density map of the vertex region
[3] = target: penton protein P31 of bacteriophage PR772 (bacteriophage PR772); experiment: cryo-EM structure; localized asymmetric (C1) reconstruction of the five-fold vertex after capsid signal subtraction (about 10 Å for the class with P2; 4.41 Å for the penton) and focused classification of the penton base (4.25 Å); models fitted as rigid bodies; purified wild-type virions
[4] = target: major capsid protein P3 of bacteriophage PR772 (bacteriophage PR772); experiment: cryo-EM structure; icosahedrally averaged (I4) single-particle reconstruction of purified wild-type PR772 virions; overall 2.75 Å, capsid 2.3 Å; de-novo model of the asymmetric unit; difference density map of the vertex region

For “receptor-binding protein P2 of bacteriophage PR772 (natural protein)”, which percent of vertex sub-particles with a density representing P2 [1] is on record?
Its percent of vertex sub-particles with a density representing P2 is 16%.

With “capsid associated protein P30 of bacteriophage PR772 (natural protein)” as the substance, how does the stoichiometry N [2] read?
Its stoichiometry N is 2.

“host-recognition protein P5 of bacteriophage PR772 (natural protein)” was tested. Which stoichiometry N [1] did it give?
Its stoichiometry N is 3.

What about the stoichiometry N (copies of P5 in the penton base) [3] of the same substance?
The stoichiometry N (copies of P5 in the penton base) was 3.

And the stoichiometry N (copies of P31 in the penton base) [3]?
The stoichiometry N (copies of P31 in the penton base) was 2.

Which stoichiometry N [4] does the source give for “major capsid protein P3 of bacteriophage PR772 (natural protein)” here?
The stoichiometry N was 3.
